In one test the test system is polymorphic hMC4Rs. Description: cAMP based functional bioassay, summary statements for the polymorphic hMC4Rs as a group. The format is cell-based, human.
For test [1], the target named is T1, C271Y hMC4R (Homo sapiens, UniProt P32245, C271Y).
T1 construct: expressed in transfected cells
Description: cAMP based functional bioassay, agonist stimulation, stably transfected HEK-293 cells. The class given is cell-based.

Test [2] has as its target T2, L106P hMC4R (Homo sapiens, UniProt P32245, L106P).
T2 construct: expressed in transfected cells
The description is as above. The format is cell-based. The conditions noted are these: HEK293, L106P hMC4R, read-out: stimulation (maximal stimulation less than the forskolin control level).

The target of test [3] is T3, S58C hMC4R (Homo sapiens, UniProt P32245, S58C).
T3 construct: expressed in transfected cells
The description is as above. The class given is cell-based. Conditions: S58C hMC4R as printed; at up to 10^−5 M concentrations.

Another test has as its target T4, G252S hMC4R (Homo sapiens, UniProt P32245, G252S).
T4 construct: expressed in transfected cells
In words: cAMP based functional bioassay, antagonist Schild analysis against agonist MTII. The format is cell-based. The conditions noted are these: ± SEM.

Test [4] has as its target T1, C271Y hMC4R. The test is described as above. The class given is cell-based. Conditions: ± SEM.
A further test deals with T5, wild type (WT) hMC4R (Homo sapiens, UniProt P32245).
T5 construct: expressed in transfected cells
The test is described as above. The format is cell-based. The conditions noted are these: ± SEM.

A further test deals with T6, S127L hMC4R (Homo sapiens, UniProt P32245, S127L).
T6 construct: expressed in transfected cells
The test is described as above. The class given is cell-based.

In the next test the target is T7, I102S hMC4R (Homo sapiens, UniProt P32245, I102S).
T7 construct: expressed in transfected cells
The description is as above. Conditions: ± SEM. The format is cell-based.

In a further test the target is T8, R165Q hMC4R (Homo sapiens, UniProt P32245, R165Q).
T8 construct: expressed in transfected cells
The test is described as above. The format is cell-based. The conditions noted are these: ± SEM.

Test [5] addresses T2, L106P hMC4R. Described as above. The class given is cell-based. The conditions noted are these: ± SEM.
Another test deals with T9, N97D hMC4R (Homo sapiens, UniProt P32245, N97D).
T9 construct: expressed in transfected cells
The test is described as above. The class given is cell-based.

The target in the next test is T10, I301T hMC4R (Homo sapiens, UniProt P32245, I301T).
T10 construct: expressed in transfected cells
The description is as above. The format is cell-based. Conditions: ± SEM.

The target in test [6] is T3, S58C hMC4R. The test is described as above. The class given is cell-based. The conditions noted are these: ± SEM.
In the next test the target is T11, I137T hMC4R (Homo sapiens, UniProt P32245, I137T).
T11 construct: expressed in transfected cells
Described as above. The conditions noted are these: ± SEM. The format is cell-based.

For the next test, the target named is T12, T150I hMC4R (Homo sapiens, UniProt P32245, T150I).
T12 construct: expressed in transfected cells
Described as above. The class given is cell-based. Conditions: ± SEM.

Another test deals with T13, R165W hMC4R (Homo sapiens, UniProt P32245, R165W).
T13 construct: expressed in transfected cells
The description is as above. The conditions noted are these: ± SEM. The class given is cell-based.

For the next test, the target named is T14, V253I hMC4R (Homo sapiens, UniProt P32245, V253I).
T14 construct: expressed in transfected cells
Described as above. The format is cell-based. Conditions: ± SEM.

Where [7] appears, read: Schild analysis, agonist MTII, ± SEM.

Ends that are not written are not given here.

For the molecule `C[C@@H]1NC(=O)[C@H](CC(N)=O)NC(=O)[C@H](Cc2c[nH]c3ccccc23)NC(=O)[C@H](CCCNC(=N)N)NC(=O)[C@@H](Cc2ccccc2)NC(=O)[C@H](Cc2c[nH]cn2)NC(=O)[C@@H](NC(=O)[C@@H](N)Cc2ccc(O)cc2)CSSC[C@@H](C(=O)N[C@@H](Cc2ccc(O)cc2)C(N)=O)NC(=O)[C@H](Cc2ccccc2)NC1=O` [AMW3-130, Tyr-c[Cys-His-DPhe-Arg-Trp-Asn-Ala-Phe-Cys]-Tyr-NH2], the “agonist EC50 potency” value in the test on polymorphic hMC4Rs (at all these polymorphic hMC4Rs) is “sub nM to mM”. Besides, in the test on polymorphic hMC4Rs (eleven human MC4R polymorphisms), the “agonist function at these hMC4Rs” value was “rescue”.
Turning to `CSCC[C@H](NC(=O)[C@H](CCCNC(=N)N)NC(=O)[C@H](Cc1ccc(O)cc1)NC(=O)[C@@H]1CCCN1C(=O)CNC(=O)[C@H](CCC(=O)O)NC(=O)[C@H](CC(=O)O)NC(=O)[C@H](CCCCN)NC(=O)[C@H](CCCCN)NC(=O)[C@H](CCC(=O)O)NC(=O)[C@H](C)N)C(=O)N[C@@H](CCC(=O)O)C(=O)N[C@@H](Cc1c[nH]cn1)C(=O)N[C@@H](Cc1ccccc1)C(=O)N[C@@H](CCCNC(=N)N)C(=O)N[C@@H](Cc1c[nH]c2ccccc12)C(=O)NCC(=O)N[C@@H](CO)C(=O)N1CCC[C@H]1C(=O)N1CCC[C@H]1C(=O)N[C@@H](CCCCN)C(=O)N[C@@H](CC(=O)O)C(=O)O` [β-MSH], the response stimulated result on C271Y hMC4R [1] (C271Y hMC4R) is on record as “maximal response”.
Regarding SYSMEHFRWGKPVGKKRRPVKYPN [ACTH(1-24)], the Emax at 1 µM on C271Y hMC4R [1] (HEK293, C271Y hMC4R, at 1 μM, read-out: stimulation (maximal stimulation less than the forskolin control level)) is 42 to 58%; at L106P hMC4R [2], 40 to 50%. Further, on S58C hMC4R [3], the “ability to stimulate this receptor” value is “inability”.
For the molecule “hAGRP(87-132): endogenous C-terminal antagonist agouti-related protein ligand, purchased from Peptides International”, the “Antagonist pA2” value with G252S hMC4R is 8.53 ± 0.02; in the test with C271Y hMC4R [4], 8.45 ± 0.03; with wild type (WT) hMC4R, 8.28 ± 0.11; in the test with S127L hMC4R (setting [7]), 7.06 ± 0.16; with I102S hMC4R, 8.17 ± 0.10; with R165Q hMC4R, 8.57 ± 0.06. The “Antagonist pA2” value was 8.27 ± 0.12 in the test with L106P hMC4R [5]; 7.44 ± 0.11 in the test with N97D hMC4R (setting [7]); 8.60 ± 0.07 with I301T hMC4R; 8.02 ± 0.13 with S58C hMC4R [6]; 8.33 ± 0.12 with I137T hMC4R; 8.34 ± 0.06 with T150I hMC4R. For the same molecule, the “Antagonist pA2” value with R165W hMC4R was 8.52 ± 0.17; with V253I hMC4R, 8.41 ± 0.17. Moreover, the “antagonist potency relative to the wild type control” value with S127L hMC4R and in the test with N97D hMC4R was “statistically significant decreased” each time.

The values are drawn from patent US8058240B2, “Biological active ligands of melanocortin receptors” (University of Florida Research Foundation, Inc., priority 2006, dated 2011).
